Experiment: yeast display, Sf9 membrane polyspecificity reagent, FACS + sequencing; frameworks hold sequencing errors
Outline: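 Nanobodies came from a synthetic yeast display library in Saccharomyces cerevisiae BJ5465, induced with galactose for 36–48 hours and stained for 1 hour at 4 °C with 10% biotinylated, detergent-solubilized Sf9 membrane reagent. Cells were enriched on streptavidin microbeads and then FACS-sorted, with low and high (top ~1%) gates set on anti-HA fluorescence for expression and streptavidin fluorescence for reagent binding. Each polyreactivity label reflects the gate a clone came from. Genes were amplified by colony PCR, sequenced by MiSeq 2 × 250 and filtered by CDR length.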

Row | Sequence | polyreactivity (PSR sort gate)
1 | QVQLVESGGGLVQAGGSLRLSCAASGSTFGYNGMGWFRQAPGKERELVAAISGGARTYADSVKGRFTISRDNAKNTVYLQMNSLKPEDTAVYYCAAGVFHIFSRGNYDPSEYEYWGQGTQVTVSS | low polyreactivity
2 | QVQLVESGGGLVQAGGSLRLSCAASGFIFQSYAMGWYRQAPGKERELVASITRSGGSTYYADSVKGRFTISRDNAKNTVYLQMNSLKPEDTAVYYCNTYRNHYGWRKFNYWGQGTQVTVSS | high polyreactivity
3 | QVQLVETGGGLVQAGGSLRLICAASGSTFQYYAMGWSRQAPGKERELVAAITHSGTRTYYADSVKGRFTISRDNAKNTVYLQMYRLKPEDTSVYYCAALYTWYRYYRLDYWGQGTQVTVSS | high polyreactivity
4 | QVQLVESGGGLVQAGGSLRLSCAASGIFGYNAMGWYIQAPGKERELVAAITSSGTSTYYADSVKGRFTISRDNAKNTVYLQMNSLKPEDTAVYYCAALHSGTWTGYGYWGQGTQVTVSS | low polyreactivity
5 | QVQLVESGGGLVQAGGSLRLSCAASGSIFDYNTMGWYRQAPGKVRELVAVISGTGGSTYYADSVKGRFTISRVNAKNTVYVQLNSMKPEDTAVYYCAAEGYYSNYHYWGQGTQVTVSS | low polyreactivity
6 | QVQLVESGGGLVQAGGSLRLSWAAYGNIFPHYAMGWYIQAPGKERELVAGITSSGGSTSYADSVKGRFTISRDNAKKTVYLQMNSLKPEDTAVYYCAAPRGQRVRDVYWGQGTQVTVSS | low polyreactivity
7 | QVQLVESGGGLVQAGGSLRLSCAASGRTFAIYTRGWYRQAPGKERELVASITSSGASTYYADSVKGRFTISRDNAKNTVYLQMNSLKPEYTAVYYCAAGWYQGFDYWGQGTQVTVSS | high polyreactivity
8 | QVQLVESGGGLVQAGGSLRLSCAASGRTYLYYVMGWYIQAPGKEREVVAAISYSGGSTYYADSVKGRFTISRDNAKNTVYLQMNSLKPEDTAVYYCTAVPVVRAGHGYDSWGQGTQVTVSS | high polyreactivity
9 | QVQLVESVGGLVQAGGSLRLSCAASGSTFYIYAMGWYRQAPGKERELVADINNSDSTYYADSVKGRFTISRDNAKITVYLQMYSLKPEDTAVYYCAAYDYYIGAYSYGGSDYDYWGQGTQVTVSS | low polyreactivity
10 | QVQLVESGGGLVQAGGSLRLSCAASGSTFTPYAMGWYRQAPGKERELVAGITGNGGSTRYADSVKGRFTISRDNAKNTVYLQMNSLKTEDTAVYYCAARWTRERYRTSYYSWGQGTQVTVSS | high polyreactivity
11 | QVQLVESGGGLVQAGGSLRLSCAASGSTFDYNAMGWYRQAPGKERELVAAITTVGITYYADSVKGRFTISRDNAKNTVYLQMNSLKPEDTAVYYCAARSVRYGGRYDYWGQGTQVTVSS | high polyreactivity
12 | QVQLVESGGGLVQAGGSLRLSCAASGSISTPYTMGWYRQAPGKERELVADISWIGDTTSYADSVKGRFTISRDNAKNTVYLLMNSLKPEDTAVYYCNAEHRGYEYWGQGTQVTVSS | low polyreactivity
13 | QVQLVESGGGLVQAGGSLRLSCAASGFTFPVYVMGWYRQAPGKERELVSAISGGGGTYYADSVKGRFTISRDNAKNTVYLQMNSLKPEDTAVYYCAADYRTYVYVYGFRHFDYWGQGTQVTVSS | low polyreactivity
14 | QVQLVESGGGLVQAGRSLRLSCAASGITFIYYAMGWYRQAPGKESELVAAISKSGGRTYYADSVKGRFTISRDNAKNTVYLQMNSLKPEDTAVYYCNKLVGDDTDLYDYWGQGTQVTVSS | high polyreactivity
15 | QVQREESGGGLVQAGGSLRLSCAASGLTFTTYAMGWYRQAPGKERELVAAISRRGSRTYYADSVKGRFTISRDNAKNTVYLQMNSLKPEDTAVYYCNALTGSFKTYSFDYWGQGSQVTVSS | high polyreactivity
16 | QVQLVESGGGLVQAGGSLRLSCAASGYTAYTYTMGWYRQAPGKVREWVAAMSRRSDSTYADSVKGRFTISRDNAKNTVYLQMNSLKPEDTADYYCAAVRVSYRSLSKSYYWGQGTQVTVSS | high polyreactivity
17 | QVQLVESGGGLVQAGGSLRLSCAASGRIYWYYAMGWYRQAPGKERELVATISYGGGNTYYADTVKVRFTISRDNAKNTVYLQMNSLNPEDTAVYYCARVPYAYLPYKPFQQYSYDYWGQGTQVTVSS | high polyreactivity
18 | QVQLVESGGGLDQAGGSLRLSCAASGSTFYYNAMGWYRQAPGKERELVAAISSDGSTNYADSVKGRFTISRDNAKNTVYLQMNSLKPEDTAVYYCAKKDFYFAPSPGYYRSRDYWGQGTQVTVSS | low polyreactivity
19 | QVQLVESGGGLVQAGGSLRLSCAASGYIFVYYAMGWYRQAPGKEREMVAAISSSGDTTYYADSVKGRFTISRDNAKNTVYLQMNSLKPEDTAVYYCAARVRGYSHASNYYWGQGTQVTVSS | high polyreactivity
20 | QVQLEESGGGLVQAGGSLRLSCAASGRTFSIYAMGWYRQAPGKERELVASITGRGTRTYYADSVKGRFTISRDNAKNTVYLQMNSLKPEDTAVYYCNARGKVQSSYDDDYWGQGTQVTVSS | high polyreactivity
21 | QVQLVETGGGLVQAGGSLRLSCAASGFIFPIYAMGWYRQATGKERELVAVISGSGGSTYYADSVKGRFTISRDNAKNTVYLQMNSLKPEDTAVYYCAARGRNVAGYKGGYWGQGTQVTVSS | low polyreactivity
22 | QVQLVESGGGLVQAGGSLRLSCAASGRIFGTNAMGWYRQAPGKERELVADITSGGSTNYADSVKGRFTISRDNAKNTVYLQMNSLTPEDTAVYYCAADVIGDLRWYRDEYWGQGTQVTVSS | low polyreactivity

Row | Sequence | polyreactivity (PSR sort gate)
23 | QVQLVESGGGLVQAGRSLRLSCAASGSTFWFYAMGWYRQAPGKERELVASINSGGSTYYADSVKGRFTISRDNAKNTVYLQMNSLKPEDTAVFYCAADAYSWWGRWERYPYTTMYYWGQGTQVTVSS | low polyreactivity
24 | QVQLVESGGGLVEAGGSLRLSCAASGRTFFKYTMGWYRQAPGKERELVSAITGSGASTYYADSVKGRFTISRDNAKNTVYLQMNSLKPEDTAVYYCAAVLTVKKGDKYGYWGQGTQVTVSS | high polyreactivity
25 | QVQLVESGGGLVQAGGSLRLSCAASGSIFVNNALGWDRQAPGKDWELVAAISSRGGSTYYADSVKGRFTISRDNAKNTVYLQMHSLKPEDTAVYYCAAEYDGPYYSFYPEQRYYWGQGNQVTVSS | low polyreactivity
26 | QVQLVESGGGLVQAGGSLRLSCAASGSILNDYAMGWYRQAPGKERELVAGISRGGGTYYADSVKGRFTISRDNAKNTVYLQMNSLKPEDTAVYYCAKRIYWYHYRYDYWGQGTQVTVSS | high polyreactivity
27 | QVQLVESGGGLVQAGGSLRLSCAASGFTFRTYAMGWYRQAPGKERELVAGISQGGGSTYYADSVKGRFTISRDNAKNTVYLQMKSLKTEVTAVYYCAKARNSNARFGYWGQGTQVTVSS | high polyreactivity
28 | QVQLVESGGGLVQAGGSLRLSCAASGLTFYVYAMGWYRQAPGKEREFVAAITRSGGSTHFADSVKGGFTISRDNAKYTVYLQMNSLKPEDTAVYYGAARAIRYYIRYYYWGQGTQVTVSS | high polyreactivity
29 | QVQLVESGGGLVQAGGSLRLSCAASGGIFYLNAMGWYRQAPRKERELVAAITGTGGNTYYADSVKGRFTISRDNAKNTVYLQMNSLKPEDTAVYYCAAAAIGVGSGPFGIGWEEYYYWGLGTQVTVSS | low polyreactivity
30 | QVQLVESGGGLVQARGSLRLSCAASGFTFGYNAMGWYRKAPGTERELVAVITQSGGRTYYADSVKGRFTISRDNANNSVYLQMNSLKPEDTAVYYCAARYRLAPYYYWGQGTQVTVSS | high polyreactivity
31 | QVQLVESGGGLVQAGGSLRLSCAASGGTIGRYTMGWYRQAPGKERELVAAITGRGGSTYYADSVKGRFTISRDNAKNTVYLQMNSLKPEDTAVYYCAAVSNVARMYYWGQGTQVTVSS | high polyreactivity
32 | QVQLVESGGGLVQAGGSLRLSCAASGRIFHANAMGWYRQAPGKERELVAGISRNGGRTYYADSVKGRFTISRDNAKNTVYLQMNSLKPEDTAVYYCAKGHKFRFDYWGQGTQVTVSS | high polyreactivity
33 | QYQLVESGGGLVQAGGSLRLICAASGRIINKKAMGRYRHAPGKERELVAAITSSGGSTYYADSVKGRFTISRDNAKNTVYLQMNSLKPEDTAVYYCAAYAYGRFGKLNYWGQGTQVTVSS | low polyreactivity
34 | QFQPVESGGGLVQAGGSLRLSCAASGFTFYRYAMGWYRPAHGKERELVAAITFSGSSTYYADSVKGRFTISRDNAKNTVYLQMNSLKEEDTAVYYCAAGGSFWYFSPRYGYWGQGTQVTVSS | high polyreactivity
35 | QVQLVESGGGLVQAGGSLRLSCAASGSIFYDNGMGWYRQAPGKERELVAAISRGGTTNYSDSVKGRFTISRDKAKNTVYLQMNSLKPEDTAVYYCNAETRFTYWGSWYDYWGQGTQVTVSS | low polyreactivity
36 | QVQLVESGGGLVQAGGSLRLSCAASGRILTFNAMGGYRQAPVKERELVASISNGGSTIYADSVKGRFSISRDNAKNTVYLQMNSLKPEDTAVYYCAALNASQGTVTFYIFDYWGQGTQVTVSS | low polyreactivity
37 | QVQLVESGGGLVQAGGSLRLSCAASGLMLGYYAMGWYRQAPGKERELGATIRRGASTYYADSVKGRLTISRDNAKNTVYLQMNSLKPEDTALYYCAAYGHQFQGDYNYWGPGTQVTVSS | low polyreactivity
38 | QVQLVESGGGLVQAGGRLRLSCAASGTIFYYNAMGWYRQAPGKERELVAVISQSGTSTYYADSVKGRFTNSRDNAKNTVYLQMNSLKPEDTAVYYCAADSRHGSIMDYWGLGTQVTVSS | low polyreactivity
39 | QVQLVESGGGLVQAGGSLRLSCAASGSTFKIYAMGWYRQAPGKERELVARITGRGGSTYYADSVKGRFTISRDNAKNTVYLQMNSLKPEDTAVYYCAARVYTFYYDLHKRYYWGQGTQVNVSS | high polyreactivity
40 | QVQLVESGGGLVQAGGSLRLSCAASGRIFSIYGMGWYRQAPGKEREFVASITYSGGSTYYADSVKGRFTISRDYAKNTVYLQMNSLKPEDTAVYYCNADIEKSYNYWGQGTQVTVSS | low polyreactivity
41 | QVQLVESGGGLVQAGGSLRLSCAASGSTFVGYAMGWYRQAPGKERELVADIDSIGGSTYYADSVKRRFTISRDNAKNTVYLQMNSLKPEDTAVYDCAAYQHPGLRTSYEYWGQGTQVTVSS | low polyreactivity
42 | QVQIEESGGGLVQAGGSLRLSCAASGFTFTYNDMGWNRQAPGKETEFVAAISSTGGSTYYADSVKGRFTISRDNAKNTVYLQMNSLKPEDTAVYYCAAEDSWYWDAWFDYWGQGTQVTVSS | low polyreactivity
43 | QVQLVESGGGLVQAGGSLRLSCAASGRTFGPNAMGWYRQAPGKEMELVATITYIGGSTYYADSVKGRFTISRDNAKNTVYLQMNSLKPEDTAVYYCAKRGGSYKEGDSWGQGTQVTVSS | low polyreactivity
